The text below walks through data of IntAct's records for PubMed 21720390.

To fix the notation:
B1: NAD-dependent protein deacetylase sirtuin-3, mitochondrial (Homo sapiens), Q9NTG7 (parent)
chain: MAFWGWRAAAALRLWGRVVERVEAGGGVGPFQACGCRLVLGGRDDVSAGLRGSHGARGEPLDPARPLQRPPRPEVPRAFRRQPRAAAPSFFFSSIKGGRRSISFSVGASSVVGSGGSSDKGKLSLQDVAELIRARACQRVVVMVGAGISTPSGIPDFRSPGSGLYSNLQQYDLPYPEAIFELPFFFHNPKPFFTLAKELYPGNYKPNVTHYFLRLLHDKGLLLRLYTQNIDGLERVSGIPASKLVEAHGTFASATCTVCQRPFPGEDIRADVMADRVPRCPVCTGVVKPDIVFFGEPLPQRFLLHVVDFPMADLLLILGTSLEVEPFASLTEAVRSSVPRLLINRDLVGPLAWHPRSRDVAQLGDVVHGVESLVELLGWTEEMRDLVQRETGKLDGPDK

The experiment covers variants of B1. The following applies: with aldh2_human ALDH2, P05091.
Chain of aldh2_human ALDH2, P05091 (P05091 whole entry): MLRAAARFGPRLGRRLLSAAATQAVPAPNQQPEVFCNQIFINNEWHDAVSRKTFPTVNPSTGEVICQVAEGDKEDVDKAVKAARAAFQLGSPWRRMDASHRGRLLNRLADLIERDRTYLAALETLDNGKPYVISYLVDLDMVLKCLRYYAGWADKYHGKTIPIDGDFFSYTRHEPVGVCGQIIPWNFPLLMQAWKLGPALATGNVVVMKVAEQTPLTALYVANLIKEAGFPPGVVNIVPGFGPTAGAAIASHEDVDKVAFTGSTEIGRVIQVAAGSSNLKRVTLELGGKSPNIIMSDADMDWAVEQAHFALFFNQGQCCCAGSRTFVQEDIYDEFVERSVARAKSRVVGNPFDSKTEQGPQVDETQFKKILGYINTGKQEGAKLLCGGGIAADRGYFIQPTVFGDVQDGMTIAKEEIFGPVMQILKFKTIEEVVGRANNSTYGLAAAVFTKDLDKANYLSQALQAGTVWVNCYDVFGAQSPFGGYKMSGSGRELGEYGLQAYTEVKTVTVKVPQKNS
As to H248Y, the “effect of a mutation on the interaction” value is recorded as “decreasing interaction”.
